From patent publication US8722052B2, “Vaccinia virus protein A46 peptide and use thereof” (priority 2008, dated 2014)
Entries after “also recorded” stand apart in the source; their conditions may differ. Square brackets hold non-standard residues; d marks the D form. Ends that are not written are not given here.

Biological target: T1, TLR4 (Mus musculus, UniProt Q9QUK6)
T1 sequence (Q9QUK6 26-835): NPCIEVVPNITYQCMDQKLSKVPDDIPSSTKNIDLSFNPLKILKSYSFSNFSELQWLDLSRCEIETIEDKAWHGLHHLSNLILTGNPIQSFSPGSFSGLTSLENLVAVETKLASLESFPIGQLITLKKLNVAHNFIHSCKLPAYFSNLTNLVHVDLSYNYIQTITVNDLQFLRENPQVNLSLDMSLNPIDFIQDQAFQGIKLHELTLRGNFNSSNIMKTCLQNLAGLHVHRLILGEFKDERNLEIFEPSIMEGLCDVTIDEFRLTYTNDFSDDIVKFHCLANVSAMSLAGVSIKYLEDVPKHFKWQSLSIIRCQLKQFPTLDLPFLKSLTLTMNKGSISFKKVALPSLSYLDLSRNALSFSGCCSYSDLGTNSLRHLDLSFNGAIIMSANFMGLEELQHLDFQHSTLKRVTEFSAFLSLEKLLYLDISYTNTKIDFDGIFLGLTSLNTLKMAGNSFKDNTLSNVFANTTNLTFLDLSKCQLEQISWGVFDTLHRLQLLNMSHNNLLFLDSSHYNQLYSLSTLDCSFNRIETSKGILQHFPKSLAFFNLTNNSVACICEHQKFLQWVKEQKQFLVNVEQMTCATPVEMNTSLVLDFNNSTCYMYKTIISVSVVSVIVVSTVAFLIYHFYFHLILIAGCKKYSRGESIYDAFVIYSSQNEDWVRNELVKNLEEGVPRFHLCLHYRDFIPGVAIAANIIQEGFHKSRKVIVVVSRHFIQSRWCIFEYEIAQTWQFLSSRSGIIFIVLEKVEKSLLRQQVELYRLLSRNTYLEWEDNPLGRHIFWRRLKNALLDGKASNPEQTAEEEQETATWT
T1 sequence (Q9JHF9 19-160 partner): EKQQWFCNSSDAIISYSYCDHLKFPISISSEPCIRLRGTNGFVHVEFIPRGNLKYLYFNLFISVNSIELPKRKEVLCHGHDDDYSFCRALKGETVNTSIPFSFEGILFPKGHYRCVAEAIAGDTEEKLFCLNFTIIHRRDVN
Assay: LPS-induced TNFα in immortalised murine macrophages, ELISA
Format: cell-based
Parameters: endogenous in cells; immortalised murine bone-marrow-derived macrophages
Conditions: peptide 1, 5 or 25 μM 1 h before 10 ng/ml LPS, 6 h
Experimental: FIGS. 14A and B are bar charts showing the comparison of the inhibitory effect of the L- and D-forms of A464 on LPS-induced TNFα in primary human and murine cells. PBMC (1×10^6 cells/ml, (A)) or immortalised murine macrophages (1.5×10^5 cells/ml, (B)) were seeded in 96 well plates 24 hours before treatment. L-form and D-form A464 peptides (with the 9R delivery peptide on the C-terminus, SEQ ID NO. 20) were added to the cells at a concentration of 1, 5 or 25 μM 1 hour before stimulating with 10 ng/ml LPS. Supernatants were collected 6 hours after stimulation and assayed for either human (A) or murine (B) TNFα production by ELISA. No peptides were added to the control wells (black bars). Data is representative of at least three experiments each performed in triplicate and is expressed as mean±s.d;
FIGS. 15A and B are bar charts showing the effect of the D-form A464 peptide with the TAT delivery sequence on LPS induced TNFα in primary human and murine cells. PBMC (A) and immortalised murine macrophages (B) were seeded in 96 well plates 24 hours before treatment. D-form of A467 (SEQ ID NO. 37) and A464 (SEQ ID NO. 36) with the TAT delivery sequence were added to the cells at a concentration of 1, 5 or 25 μM 1 hour before stimulating with 10 ng/ml LPS. The peptides were added into the unstimulated control wells at 25 μM. Supernatants were collected 6 hours after stimulation and assayed for either human (A) or murine (B) TNFα production by ELISA. No peptides were added to the control wells (black bars). Data is representative of at least three experiments each performed in triplicate and is expressed as mean±s.d;
FIGS. 16A and B are bar charts showing the effect of attaching 9R to the N-terminus of A464 on LPS-induced TNFα in primary human and murine cells. Immortalised murine macrophages (A) and PBMC (B) were seeded in 96 well plates 24 hours before treatment. L-form of A467 (SEQ ID NO. 39) and A464 (SEQ ID NO. 38) with the 9R-delivery sequence at the N-terminus were added to the cells at a concentration of 1, 5 or 25 μM 1 hour before stimulating with 10 ng/ml LPS. The peptides were added into the unstimulated control wells at […]. Supernatants were collected 6 hours after stimulation and assayed for either murine (A) or human (B) TNFα production by ELISA. No peptides were added to the control wells (black bars). Data is representative of at least three experiments each performed in triplicate and is expressed as mean±s.d;
FIGS. 17A and B are bar charts showing the effect of the D-form A464 with 9R at the N-terminus on LPS-induced TNFα in primary human and murine cells. Immortalised murine macrophages (A) and PBMC (B) were seeded in 96 well plates 24 hours before treatment. D-form of A467 (SEQ ID NO. 39) and A464 (SEQ ID NO. 38) peptides with the 9R-delivery sequence at N-terminus were added to the cells at a concentration of 1, 5 or 25 μM 1 hour before stimulating with 10 ng/ml LPS. The peptides were added into the unstimulated control wells at 25 μM. Supernatants were collected 6 hours after stimulation and assayed for either murine (A) or human (B) TNFα production by ELISA. No peptides were added to the control wells (black bars). Data is representative of at least three experiments each performed in triplicate and is expressed as mean±s.d;
FIGS. 18A and B are bar charts showing the effect of shortened A464 peptides with deletions of N- and C-terminal amino acids on LPS-induced TNFα in murine macrophages. Immortalised murine macrophages were seeded in 96 well plates (1.5×10^5 cells/ml) 24 hours before treatment. A464 peptides with a deletion of one (N-1) (SEQ ID NO. 40) or two (N-2) (SEQ ID NO. 41) amino acids from the N-terminus (A), or three (C-3) (SEQ ID NO. 42) or six (C-6) (SEQ ID NO. 43) amino acids from the C-terminus (B), were added to the cells at a concentration of 1, 5 or 25 μM 1 hour before stimulating with 10 ng/ml LPS. Peptides were added to the control wells at 25 μM. […]

Substance	inhibition of LPS-induced mTNFα production
KYSFKLILAEYRRRRRRRRR [Peptide A464]	significant inhibition of TLR4 by A464 (SEQ ID No. 20) at 1 μM; also recorded: complete inhibition at 1
9RN-A464 (RRRRRRRRRKYSFKLILAEY) [Peptide 9RN-A464]	complete inhibition was observed at 1 μM
D-9RN-A464 ([dR][dR][dR][dR][dR][dR][dR][dR][dR][dK][dY][dS][dF][dK][dL][dI][dL][dA][dE][dY]) [Peptide D-9RN-A464]	no inhibition at 1 μM
